From patent publication US20200024330A1

Experiments:
Experiment in all cases: cell-based or functional assay
[1] = biological target: HIV-1 Env of isolate 92WR009 (HIV-1)
[2] = biological target: HIV-1 Env of isolate 92WR026 (HIV-1)
[3] = biological target: HIV-1 Env of isolate MGRM-C-006 (HIV-1)
[4] = biological target: HIV-1 Env of isolate MGRM-C-028 (HIV-1)
[5] = biological target: HIV-1 Env of isolate MGRM-F1-012 (subtype F), on pseudovirus (HIV-1)
[6] = biological target: HIV-1 Env of isolate MGRM-D-026 (subtype D), on pseudovirus (HIV-1)
[7] = biological target: HIV-1 Env of isolate 92UG005 (HIV-1)
[8] = biological target: HIV-1 Env of isolate 98CN006 (HIV-1)
[9] = biological target: HIV-1 Env of isolate MGRM-C-025 (HIV-1)
[10] = biological target: HIV-1 Env of isolate 92WR024 (HIV-1)
[11] = biological target: HIV-1 Env of isolate NL43 (HIV-1)
[12] = biological target: HIV-1 Env of isolate MGRM-A-008 (clade A), on pseudovirus (HIV-1)
[13] = biological target: HIV-1 Env of isolate MGRM-F1-020 (subtype F), on pseudovirus (HIV-1)
[14] = biological target: HIV-1 Env of isolate MGRM-F1-023 (subtype F), on pseudovirus (HIV-1)
[15] = biological target: HIV-1 Env of isolate MGRM-AE-002 (HIV-1)
[16] = biological target: HIV-1 Env of isolate MGRM-G-013 (subtype G) (HIV-1)
[17] = biological target: HIV-1 Env of isolate MGRM-G-011 (subtype G) (HIV-1)
[18] = biological target: HIV-1 Env of isolate MGRM-F1-013 (HIV-1)
[19] = biological target: HIV-1 Env of isolate MGRM-F1-020 (HIV-1)

5345_I01 (PGT-137) (antibody), sequence (VH): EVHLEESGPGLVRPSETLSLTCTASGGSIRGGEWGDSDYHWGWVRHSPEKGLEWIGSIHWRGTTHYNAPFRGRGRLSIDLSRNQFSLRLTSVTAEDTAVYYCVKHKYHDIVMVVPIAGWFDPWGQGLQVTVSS
5345_I01 (PGT-137) (antibody), sequence (VL): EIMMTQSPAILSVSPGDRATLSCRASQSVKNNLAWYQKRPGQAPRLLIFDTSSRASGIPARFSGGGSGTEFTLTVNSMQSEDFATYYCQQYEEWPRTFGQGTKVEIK
PGT-141 (4964_G22; 4993_K13) (antibody), sequence (VH): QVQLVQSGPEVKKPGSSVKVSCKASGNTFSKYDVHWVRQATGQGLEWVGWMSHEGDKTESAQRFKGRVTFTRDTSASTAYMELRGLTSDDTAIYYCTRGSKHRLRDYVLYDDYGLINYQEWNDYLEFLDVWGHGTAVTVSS
PGT-141 (4964_G22; 4993_K13) (antibody), sequence (VL): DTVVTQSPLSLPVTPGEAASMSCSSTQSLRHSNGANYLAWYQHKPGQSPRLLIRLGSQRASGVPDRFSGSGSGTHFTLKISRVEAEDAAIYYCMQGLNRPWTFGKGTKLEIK
PGT-142 (4995_E20) (antibody), sequence (VH): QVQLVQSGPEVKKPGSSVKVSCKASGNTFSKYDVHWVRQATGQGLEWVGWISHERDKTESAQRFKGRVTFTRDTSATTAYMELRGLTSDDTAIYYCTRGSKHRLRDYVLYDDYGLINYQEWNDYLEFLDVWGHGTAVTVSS
PGT-144 (4970_K22) (antibody), sequence (VH): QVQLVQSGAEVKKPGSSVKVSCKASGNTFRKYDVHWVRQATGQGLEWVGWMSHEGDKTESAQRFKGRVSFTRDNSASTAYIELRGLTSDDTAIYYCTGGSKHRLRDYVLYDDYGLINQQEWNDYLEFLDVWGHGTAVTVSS
PGT-144 (4970_K22) (antibody), sequence (VL): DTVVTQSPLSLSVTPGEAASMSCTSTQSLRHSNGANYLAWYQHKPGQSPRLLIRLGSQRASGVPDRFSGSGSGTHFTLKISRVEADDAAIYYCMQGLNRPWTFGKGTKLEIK
PGT-143 (4980_N08) (antibody), sequence (VH): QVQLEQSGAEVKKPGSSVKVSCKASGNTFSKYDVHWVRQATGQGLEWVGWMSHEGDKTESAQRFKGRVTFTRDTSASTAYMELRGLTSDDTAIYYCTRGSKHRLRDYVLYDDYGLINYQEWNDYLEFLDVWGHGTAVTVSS
PGT-143 (4980_N08) (antibody), sequence (VL): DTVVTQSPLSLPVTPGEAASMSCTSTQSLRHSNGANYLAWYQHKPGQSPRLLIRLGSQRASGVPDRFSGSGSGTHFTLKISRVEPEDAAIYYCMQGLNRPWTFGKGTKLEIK

In the case of 5345_I01 (PGT-137) (antibody), the neutralization IC50 [1] was > 50 µg/mL, the neutralization IC50 [2] was 0.092 µg/mL and the IC50 [3] was > 50 µg/mL. The IC50 [4] was > 50 µg/mL, the IC50, pseudovirus neutralization [5] was > 50 µg/mL and the IC50, pseudovirus neutralization [6] was > 50 µg/mL. For the same substance, the IC50 [7] was > 50 µg/mL, the IC50 [8] was 1.22 µg/mL and the IC50 [9] was > 50 µg/mL. The neutralization IC50 [10] was > 50 µg/mL, the IC50 [11] was 17.4 µg/mL and the IC50, single-round pseudovirus neutralization [12] was > 50 µg/mL. For the same substance, the IC50, pseudovirus neutralization [13] was 1.93 µg/mL and the IC50, pseudovirus neutralization [14] was > 50 µg/mL.

For PGT-121 (antibody), the IC50 (µg/mL), pseudovirus neutralization [1] was 1.74 µg/mL, the IC50 (µg/mL), pseudovirus neutralization [2] was 0.014 µg/mL and the IC50 (µg/mL), pseudovirus neutralization [15] was > 50 µg/mL. For the same substance, the IC50 (µg/mL), pseudovirus neutralization [10] was > 50 µg/mL.

In the case of PGT-122 (antibody), the IC50 (µg/mL), pseudovirus neutralization [1] was 42.4 µg/mL, the IC50 (µg/mL), pseudovirus neutralization [2] was 0.036 µg/mL and the IC50 (µg/mL), pseudovirus neutralization [15] was > 50 µg/mL. The IC50 (µg/mL), pseudovirus neutralization [10] was > 50 µg/mL.

With PGT-141 (4964_G22; 4993_K13) (antibody) the neutralization IC50 [16] was > 50 µg/mL and the neutralization IC50 [17] was 0.086 µg/mL.

For PGT-142 (4995_E20) (antibody), the neutralization IC50 [16] was > 50 µg/mL and the neutralization IC50 [17] was 0.046 µg/mL.

With PGT-143 (4980_N08) (antibody) the neutralization IC50 [16] was > 50 µg/mL and the neutralization IC50 [17] was 0.074 µg/mL.

For PGT-144 (4970_K22) (antibody), the neutralization IC50 [16] was > 50 µg/mL and the neutralization IC50 [17] was 1.58 µg/mL.

PGV04 (antibody) was tested, and the IC50 (µg/mL), pseudovirus neutralization [15] was 0.569 µg/mL, the IC50 (µg/mL), pseudovirus neutralization [7] was 0.44 µg/mL and the IC50, pseudovirus neutralization [8] was 1.32 µg/mL. For the same substance, the neutralization IC50 [16] was 0.168 µg/mL, the neutralization IC50 [17] was 0.78 µg/mL and the IC50 (µg/mL), pseudovirus neutralization [18] was 0.084 µg/mL.

Substance VRC01 (antibody) has an IC50, pseudovirus neutralization [19] of 1.89 µg/mL, a neutralization IC50 [11] of 0.1 µg/mL and a neutralization IC50 [16] of 0.553 µg/mL. The neutralization IC50 [17] was 0.065 µg/mL and the IC50, pseudovirus neutralization [18] was 0.17 µg/mL.
